The results in this text go back to patent publication US20040077542A1 (University of Texas, published 2004).

In the experiment the target is T1, GST-fusion protein of the second BIR (baculoviral IAP repeat) motif of XIAP (UniProt P98170 124-240).
T1 construct: also called recombinant IAP fragment; BIR2; not shown: glutathione S-transferase (GST) fusion partner; order of GST and BIR2 not
Nature of the experiment: GST pull-down, radiolabeled peptide on GST-BIR2 glutathione resin (Example 9).

T1 sequence (P98170 124-240): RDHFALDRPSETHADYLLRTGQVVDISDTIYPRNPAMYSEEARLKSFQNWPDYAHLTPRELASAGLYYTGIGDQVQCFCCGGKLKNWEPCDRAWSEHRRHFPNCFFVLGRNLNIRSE

B1: Smac-7R: NH2-KQAIPVA-COOH (peptide)
peptide: H-KQAIPVA-OH
notes: also called negative control Smac-7R
On to B1, for which the binding result is “no binding”.
